According to PMC7998030:

How the values were obtained:
[1] = biological target: JF646-labeled Mcm2-7 (MCM) hexamer on DNA after incubation with ORC, Cdc6 and ATP (S. cerevisiae) (UniProt P29469); test: single-molecule fluorescence colocalisation on optically trapped DNA (confocal microscopy, bleaching-step counting); bulk incubation of 5 nM ORC, 10 nM Cdc6, 100 nM MCM-Cdt1 with 1 nM 21.2 kbp DNA in 5 mM ATP for 30 min at 30°C, diluted 1000x, injected into the flow cell and imaged, no high-salt wash; all proteins on DNA
[2] = biological target: JF646-labeled Mcm2-7 (MCM) hexamer on DNA after incubation with ORC, Cdc6 and ATP (S. cerevisiae) (UniProt P29469); test: single-molecule fluorescence colocalisation on optically trapped DNA (confocal microscopy, bleaching-step counting); bulk incubation of 5 nM ORC, 10 nM Cdc6, 100 nM MCM-Cdt1 with 1 nM 21.2 kbp DNA in 5 mM ATP for 30 min at 30°C, then high-salt wash (500 mM NaCl) in the flow cell before imaging; MCM hexamer with MCM hexamer (double hexamer) on DNA

percent of MCM-only foci with two or more MCMs [1]: 52%
percent of foci with 2 MCM after high-salt wash [2]: 24%
stoichiometry N [2]: 2
Substance: JF646-labeled Mcm2-7 (MCM) hexamer on DNA after incubation with ORC, Cdc6 and ATP, P29469 1-868; P24279 1-971; P30665 1-933; P29496 1-775; P53091 1-1017; P38132 1-845
